In patent US20020009436A1, “Methods and compositions for inhibiting adhesion by microorganisms” (priority 1999, published 2002):

Tests used:
S. pyogenes [1] = system: S. pyogenes
P. gingivalis = assay: Hemagglutination assay of periodontopathogens, P. gingivalis; assay type: cell-based, Porphyromonas gingivalis; design: key: + Hemagglutination; − No hemagglutination; settings: sheep blood, polyphenol oxidase 90 U/ml or asparaginase 20 U/ml, 90 min
Description: The hemagglutinations were carried out in 96 microwell (Nunc) plates in which 50 μl of 1% suspension of sheep blood and 50 μl of serially diluted cells suspension in phosphate buffered (10 mM Na2HPO4, 10 mM KH2PO4, 150 mM NaCl, 3 mM KCl) were added. The cells were adjusted at 1.4 OD at 540 nm. All the strains were treated in NaCl-free buffer with polyphenol oxidase (90 U/ml) or asparaginase (20 U/ml) for 90 min at 37° C. before hemagglutination.

Klebsiella pneumoniae = assay: Growth inhibition of Klebsiella pneumoniae; assay type: cell-based
S. pyogenes [2] = assay: Fibronectin binding assay, S. pyogenes; assay type: cell-based; settings: polyphenol oxidase 80 U/ml, asparaginase 20 U/ml
Description: Wells were filled with human serum fibronectin (50 μg/ml) diluted in carbonate buffer (50 mM Na2CO3—NaHCO3, pH 9.5 overnight). Controls were coated with 1% BSA. The wells were washed three times with PBS and incubated with PBS-Tween (0.5% Tween 20 and 0.05% NaN3) 1 h at 37° C. After attachment, the wells were washed three times with PBS-Tween and allowed to dry. Subsequent assays were as described hereinabove.

[3] = system: A. naeslundii ATCC 12104 (adhesin) / P. intermedia (receptor); assay: Coaggregation A. naeslundii ATCC 12104 / P. intermedia; settings: P. intermedia (receptor) enzyme treated; polyphenol oxidase 90 U/ml, asparaginase 20 U/ml
Description: S. sanguis 10556, A. naeslundii strains 12104 and T14V and E. coli were grown static cultures in Todd-Hewitt broth (BBL Microbiology Systems, Cockeysville, Md.). P. gingivalis W50, A. actinomycetemcomitans and C. ochracea were grown in brain heart infusion broth (BBL). F. nucleatum 22586 and P. intermedia 25611 were grown in modified Schaedler broth (BBL). All oral species except S. sanguis 10556 were incubated at 37° C. as static cultures under an anaerobic atmosphere containing H2, CO2 and N2(10:10:80) with GasPaks (BBL). S. sanguis was incubated at 37° C. as static cultures in 5% CO2.
Bacteria were harvested in the mid to late exponential growth phase by centrifugation (10,000×g for 10 min at 4° C.). The cells were washed twice in coaggregation buffer (30 mM 3-[N-morpholino]propanesulfonic acid (MOPS), pH 7.0) and adjusted to an optical density of 0.6-0.8 at 540 nm (1-cm path). […]
Coaggregation was assessed by turbidity changes. Following mixing of the cells for 10 s on a Vortex mixer, absorbance readings were made every 30 min. The percentage of coaggregation was calculated from the following formula: Percent coaggregation=[OD540(A)+OD540(B)−OD540(A+B)]/(OD540(A)+OD540(B)), where A is the control containing cells of one strain, B is the control containing cells of the other strain, and A+B is the reaction mixture containing both cells. […]

B1: asparaginase: enzyme that catalyzes hydrolysis of the side chain amide group of asparagine to a carboxyl group; E. coli asparaginase (protein, UniProt P00805 23-348, looked up)
L-asparaginase 2: LPNITILATGGTIAGGGDSATKSNYTVGKVGVENLVNAVPQLKDIANVKGEQVVNIGSQDMNDNVWLTLAKKINTDCDKTDGFVITHGTDTMEETAYFLDLTVKCDKPVVMVGAMRPSTSMSADGPFNLYNAVVTAADKASANRGVLVVMNDTVLDGRDVTKTNTTDVATFKSVNYGPLGYIHNGKIDYQRTPARKHTSDTPFDVSKLNELPKVGIVYNYANASDLPAKALVDAGYDGIVSAGVGNGNLYKSVFDTLATAAKTGTAVVRSSRVPTGATTQDAEVDDAKYGFVASGTLNPQKARVLLQLALTQTKDPQQIQQIFNQY
With B1 the “inhibition of growth of S. pyogenes” value (S. pyogenes [1]) was “did not significantly inhibit growth”, the Hemagglutination (P. gingivalis; dilution 1/2) was “−” and the Hemagglutination (P. gingivalis; dilution 1/8) was “−”. For the same molecule, the Hemagglutination (P. gingivalis; dilution 1/16) was “−”, the Hemagglutination (P. gingivalis; dilution 1/32) was “−” and the Hemagglutination (P. gingivalis; dilution 1/64) was “−”. For the same molecule, the Hemagglutination (P. gingivalis; dilution 1/128) was “−”, the Hemagglutination (P. gingivalis; dilution 1/256) was “−” and the Hemagglutination (P. gingivalis; dilution 1/512) was “−”. For the same molecule, the “inhibition of growth of Klebsiella pneumoniae” value (Klebsiella pneumoniae) was “did not significantly inhibit growth”, the “Absorbance (fibronectin)” value (S. pyogenes [2]; S. pyogenes M4, untreated 0.32) was 0.15 and the “Absorbance (fibronectin)” value (S. pyogenes [2]; S. pyogenes M24, untreated 0.33) was 0.21. The “Inhibition % of coaggregation” value [3] was 23%.
